Experimental data published in the nanobody polyreactivity screen of Harvey et al. (2022).

assay: yeast display, Sf9 membrane polyspecificity reagent, FACS + sequencing; frameworks hold sequencing errors
Outline: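 Galactose induction of a Saccharomyces cerevisiae BJ5465 synthetic nanobody display library ran 36–48 hours. The cells were then stained for 1 hour at 4 °C with 10% biotinylated, detergent-solubilized Sf9 membrane reagent, pulled down on streptavidin microbeads and FACS-sorted into low and high (top ~1%) gates on expression and reagent-binding fluorescence. Labels for polyreactivity follow the gate of origin.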

Sequence | polyreactivity (PSR sort gate)
QVQLVESGGGLVQAGGSLRLSCAASGSTFPYYAMGWYRQATGKEREFVASITYGGGSTYYADSVKGRFTISRDNAKNTVYLQMNSLKPEDTAVYYCAAGYIAGRVWYDYWGQGTQVTVSS | low polyreactivity
QVQLVESGGGLVQAGGSLRLSCAASGSTFPYYDMGWYRQAPGKERELVAAISWSGDSTYYADSVKGRFTISRDNAKNTVYLQMKSLKAEDTAVYYCNADGKAGGDYDYWGQGTQVTVSS | low polyreactivity
QVQLVESGGGLVQAGGSLRLSCAASGSTFPYYPMGWYRQAPGKERELVAAISRGDSTNYADSVKGRFTISRDNAKNTVYLQMNCLKPEDTAVYYCAARLQYRRTSVKYYFWGQGTQVTVSS | high polyreactivity
QVQLVESGGGLVQAGGSLRLSCAASGSTFPYYTMGWYRQAPGKEREMVAAITGSGGSTYYADSVKGRFTISRDNAKNTVYLQMNSLKPEDTAVYYCAKRRWDQYFKNRMYFWGQGTQVTVSS | high polyreactivity
QVQLVESGGGLVQAGGSLRLSCAASGSTFQANAMAWYRPAPGKERELVAAISSRGGITYYADSVKARFTISRDNAKNTVYLQMNSLKPEDTAVYYCNALPRSTYRQGLGVRLYYWGQGTQVTVSS | high polyreactivity
QVQLVESGGGLVQAGGSLRLSCAASGSTFQAYAMGWYRQAPGKERELVAAISVSDGITYYADSVKGRFTISRDNAKNTVYLQMNSLKPEDTAVNYCAAEISLSRSDRIESYDYWGQGTQVTVSS | low polyreactivity
QVQLVESGGGLVQAGGSLRLSCAASGSTFQAYVMGWDRQAPGKERELVAAISRSGGSTYYADSVKGRFTISRDNAKNTVYLQLHSLKPEDTAVYYCAVDASRYGSTGHYGFYYWGQGTQVTVSS | low polyreactivity
QVQLVESGGGLVQAGGSLRLSCAASGSTFQDYAMGWYRQAPGKERELVAAITYSGGSTYYADSVKGRFTISRDNAKNTVYLQLNSLKPDVTAVYYCAAKDTTVFYYDDDYWGQGTQVTVSS | low polyreactivity
QVQLVESGGGLVQAGGSLRLSCAASGSTFQEYAMGWYRQAPGKERELVASIRWSGGRTYYADSVKGRFTISRDNAKNTVYLQMNSLKPEDTAVYYCNKVWVYAVTPSSWYKYGSWGQGTQVTVSS | low polyreactivity
QVQLVESGGGLVQAGGSLRLSCAASGSTFQFYAMGWYRQAPGKERELVAVITSGDDTNYADSVKGRFTISRDNAKNTVYLQMNSLKPEDTAVYYCDVDYILVYTRVRSYWFDYWGQGTQVTVSS | low polyreactivity
QVQLVESGGGLVQAGGSLRLSCAASGSTFQHYAMGWYRQAPGKERELVAAITNTGGSTYYADSVKGRFTISRDNAKNTVYLQMNSLKPEDTAVYYCATVGRRYGYPGYYWGQGTQVTVSS | low polyreactivity
QVQLVESGGGLVQAGGSLRLSCAASGSTFQHYAMGWYRQAPGKERELVAAITNTGGSTYYADSVKGRFTISRDNAMNTVYLLMNSLKPEDTAVYYCATVGRRYGYPGYYWGQGTQVTVSS | low polyreactivity
QVQLVESGGGLVQAGGSLRLSCAASGSTFQINAMGWYRQAHGKERALVAAIDGGGDTYYADSVKGRFTISRDNAKKTDYLQMNSLKPEDTAVYYCAAERRIYYQDFNYCGQGTQVTVSS | low polyreactivity
QVQLVESGGGLVQAGGSLRLSCAASGSTFQKYVMGWYRQAPGKERELVAAISINGVRTYYADSVKGRFTISRDYAKNTVYLQMNSLKPEDTAVFFCNNDTLIRRGSGRGYWGQGTQVNVSS | high polyreactivity
QVQLVESGGGLVQAGGSLRLSCAASGSTFQLYAMGWYRQAPGKERELVATISWRGGSTYYADSVKGRFTISRDNAKNTVYLQMNSLKPEDTAVYYCAADFYLRGRYYSRYGSWGQGTQVTVSS | high polyreactivity
QVQLVESGGGLVQAGGSLRLSCAASGSTFQPYAMGWYRQAPGKEREFVAAIRWGTGSTYYADSVKGRFTISRDNAKNTVYLQMNILKPEDTAVYYCAKRRVSASREYYWGQGTQVTVSS | high polyreactivity
QVQLVESGGGLVQAGGSLRLSCAASGSTFQPYTMGWYRQAPGKERELVAAISSSGRTNYADSVKGRFTISRDNAKNTVYLQMNSLKPEDTAVYYCNRDYPYIWHKGARYWHENDYWGQGTQVTVSS | low polyreactivity
QVQLVESGGGLVQAGGSLRLSCAASGSTFQRYAMGGYRQAPGKERQLVAAISSGGSTYYADSVKGRFTISRDNAKNTVYLQINSLKPEDTAVYYCAARIYVVWSSRVYWMYYWGQGTQVTVSS | high polyreactivity
QVQLVESGGGLVQAGGSLRLSCAASGSTFQRYAMGWYRQAPGKERELVAAITWSNGSTYYADSVKGRFTISRDNAKNTVYLQMNSLKPEDTAVYYCDAEVHLGGDYWGQGTQVTVSS | low polyreactivity
QVQLVESGGGLVQAGGSLRLSCAASGSTFQRYVIGWYRQAPGKERELVAAITRTGASTYYADSVKGRFTISRDNAKNTVYLQMNSLKPEDTAVYYCAARYRLGSYTYDYSGQGTQVTVSS | high polyreactivity
QVQLVESGGGLVQAGGSLRLSCAASGSTFQTNAMGWYRQAPGKERELVAGIRWRGGSTYYADSVKGRFTISRDNAKNTVYLQMNSLKPEDSAVYYCAAYYLWHHYLFDYWGQGTQVTVSS | high polyreactivity
QVQLVESGGGLVQAGGSLRLSCAASGSTFQTYAMGWYRQAPGKERELVASINWRSGSTYYADSVKGRFTISRDNAKNTVYLQMNSLKPEDTAVYSCAAELDFSPGYYYLYDYWGQGTQVTVSS | low polyreactivity

Sequence | polyreactivity (PSR sort gate)
QVQLVESGGGLVQAGGSLRLSCAASGSTFQTYVMGWYRQAPGKERELVAAITWSGGSTYYADSVKGRFTISRDNAKNTVYLQMNSLKPEDTAVYYCAARFPWRGGVKYSYYFQHDYWGQGTQVTVSS | high polyreactivity
QVQLVESGGGLVQAGGSLRLSCAASGSTFQVYAKGWYRQAPGKERELVAAIDSGVSTYYADSVKGLFTFSRDNAKNTVYLQMNSLKPEDTAVYYWYGYDYWGQGTQVTVSS | low polyreactivity
QVQLVESGGGLVQAGGSLRLSCAASGSTFQVYAMGWYRQAPGKERELVATIRRTGGSTYYADSVKGRFTISRDNAKNTVYLQMNSLKPEDTAVYYCAARLGYAGNRDGSWGQGTQVTVSS | high polyreactivity
QVQLVESGGGLVQAGGSLRLSCAASGSTFQVYGLGWYRQAPGKERELVAAISRSGGRTYYADSVKGRFTISRDNAKNTVYLQMNSLKPEDTAVYYCAKTYQTTTSKSGYYYWGQGTQVTVSS | high polyreactivity
QVQLVESGGGLVQAGGSLRLSCAASGSTFQVYTMGWYRQAPGKEREFVASISWSGSSTYYADSVKGRFTISRDNAKNTVYLQMNSLKPEDTAVYYCAAPDESYSVWRLDGLDYWGQGTQVTVSS | high polyreactivity
QVQLVESGGGLVQAGGSLRLSCAASGSTFQYYAMGWYRQAPGKERELVAAISSGGSTYYADSVKGRFTISRDNAKNTVYLQMNSLKPEDTAVYYCAADFVNRQANRQFDYWGQGTQVTVSS | high polyreactivity
QVQLVESGGGLVQAGGSLRLSCAASGSTFQYYAMGWYRQEPGKEREFVASISGSGGSTNYADSVKGRFTISRDNAKNTVYLQMNSLKPEDTAVYYCAKEYVTEFQGYYYWGQGTQVTVSS | low polyreactivity
QVQLVESGGGLVQAGGSLRLSCAASGSTFQYYDMGWYRQAPGKERELVASITGSGDSTYYADSVKGRFTISRDNAKNTVYLQMNSLKPEDTAVYYWGQGTQVTVSS | low polyreactivity
QVQLVESGGGLVQAGGSLRLSCAASGSTFRANTMGWYRQAPGKERELVAAITSGGSTYYADSVKGRFTISRDNAKNTVYLQMNSLKPEDTAVYYCAADYTGDWADGPHSLREYDYWGQGTQVTVSS | low polyreactivity
QVQLVESGGGLVQAGGSLRLSCAASGSTFRDYAMGWYRQAPGKERELVASITSGSSTYADSVKGRFTISRDNAKNTVYLQMNCLKPEDTAVYYCNADGITSLPVPALDYWGQGTQVTVSS | low polyreactivity
QVQLVESGGGLVQAGGSLRLSCAASGSTFREYTMGWYRQAPGKEWDLVAAITNSGGSTYYADSVKGRFTISRDNAKNTVYLQMNSLKPEDTAVYYCAAEVGIVDYDYWGQGNQVTVSS | low polyreactivity
QVQLVESGGGLVQAGGSLRLSCAASGSTFRFNAMGWYRQAPGKEREFVAAIRFTGGSTYYADSVKGRFTISRDNAKNTVYLQMNSLKPEDTAVYYCNNADEYSTVEYDYWGQGSQVTVSS | low polyreactivity
QVQLVESGGGLVQAGGSLRLSCAASGSTFRFYAMGWYRQAPGKERELVATISSSGGTTYYADSVKGRFTISRDNAKNTVYLQMNSLKPEDTAVYYCAARYYDTRWRYYYWGQGTQVTVSS | high polyreactivity
QVQLVESGGGLVQAGGSLRLSCAASGSTFRGNAMGWYRQAPGKERELVAAITRRGGSTYYADSVKGRFTISRDNAKNTVYLQMNRLKPEDTAVYYCAADWGNDWWGLFWGDYWGQGTQVTVSS | high polyreactivity
QVQLVESGGGLVQAGGSLRLSCAASGSTFRGNAMGWYRQAPGKERELVASITGGGSTNYADSVKGRFTISRDNAKNTVYLQMNSLKPEDTAVYYCAADWGADFYWGQGTQVTVSS | low polyreactivity
QVQLVESGGGLVQAGGSLRLSCAASGSTFRGNAMGWYRQAPWKEREFVASISRRGGRTNYADSVKGRFTISRDNAKNTVYLQMNSLKPEDTAVYYCAAGRYRYKYRYFTAWYGYWGQGTQVTVSS | high polyreactivity
QVQLVESGGGLVQAGGSLRLSCAASGSTFRGYAMGWYRQAPGKEREFVAAISRRGGTTYYADSVKGRFTISRDNAKNTVYLQMNSLKPEDTAVYYCNKVYYQHYLAFDYWGQGTQVNVSS | high polyreactivity
QVQLVESGGGLVQAGGSLRLSCAASGSTFRGYAMGWYRQAPGKERELVAAISRSGGSTYYADSVKGRFTISRDNAKNTVYLQMNSLKPEDTAVYYCNARSSKRSSRGYDYWGQGTQVTVSS | high polyreactivity
QVQLVESGGGLVQAGGSLRLSCAASGSTFRGYAMGWYRQAPGKERELVAAITSDGSTNYADSVKGRFTISRDNAKNTVYLQMNSLKPEDTAVYYCNVKATRKWWDRRVYRYNYWGQGTQVTVSS | high polyreactivity
QVQLVESGGGLVQAGGSLRLSCAASGSTFRGYAMGWYRQAPGKERELVAASTWSGVTTYYADSVKGRFTISRDNAKNNVYLQMHSLKPEDTAVYYCATGTLYSDGAIYGYWGQGTQVTVSS | low polyreactivity
QVQLVESGGGLVQAGGSLRLSCAASGSTFRGYAMGWYRQAPGKERELVAGITKRGGSTYYADSVKGRFTISRDNAKNTVYLQMNSLKPEDTAVYYCAAGKHRQAYEHDYWGQGTQVTVSS | high polyreactivity
